Measured values from patent US20170088617A1 (Boehringer Ingelheim, published 2017).
Changes are numbered by the printed parent chain.

B1: 280-03-08 (antibody, human IgG1, kappa, V domains shown)
VH: QVQLVQSGAEVKKPGSSVKVSCKASGGTFSDYAISWVRQAPGQGLEWMGRIIPILGVANYAQKFQGRVTITADKSTRTAYMELSSLRSEDTAVYYCARNWADAFDIWGQGTMVTVSS
VL: DIQLTQSPSSLSASVGDRVTITCRASQGISSVLAWYQQKPGKAPKLLIYDASSLESGVPSRFSGSGSGTDFTLTISSLQPEDFATYYCQQFNSSITFGQGTKLEIKR
notes: Fully human monoclonal antibody; also called No 1; Clone ID# 280-03-08
B2: 280-34-02 (antibody, human IgG1, kappa, V domains shown)
VH: B1 VH with Q3E, K12Q, G27D, D31S, L55V, V57I, A58V, Q62E, T76M, R77S
VL: B1 VL with V32A, S53R, A84T, I95Y
notes: Fully human monoclonal antibody; also called No 6; Clone ID# 280-34-02
B3: 280-61-07 (antibody, human IgG1, kappa, V domains shown)
VH: QVQLVQSGAEVKKPGSSVKVACKASGDTFSSYAISWVRQAPGQGLEWMGRVIPIIGIASYAQNFEGRVTITADRSTSTAYMALSSLRSEDTAVYYCARNWADAFDIWGQGTMVTVSS
VL: B1 VL with D50A
notes: Fully human monoclonal antibody; also called No 9; Clone ID# 280-61-07
B4: 280-50-01(mut) (antibody, human IgG1, kappa, V domains shown)
VH: B3 VH with E65Q
VL: B1 VL with D50A, N92D, L103V
notes: Fully human monoclonal antibody; also called No 8
B5: 283-07-03 (antibody, human IgG1, kappa, V domains shown)
VH: QVELVQSGAEVKKPGSSVKVSCKASGGTFSSYAISWVRQAPGQGLEWMGRIIPILGMANYAQKFQGRVTITADKSTYTAYMELSSLRSEDTAVYYCAREGGVDWYFDLWGRGTLVTVSS
VL: B1 VL with V32A, L46F, L47M
notes: Fully human monoclonal antibody; also called No 12; Clone ID# 283-07-03
B6: 280-50-01 (antibody, human IgG1, kappa, V domains shown)
VH: B3 VH with E65Q
VL: B1 VL with D50A, L103V
notes: Fully human monoclonal antibody; also called No 7; Clone ID# 280-50-01
B7: 280-31-01 (antibody, human IgG1, kappa, V domains shown)
VH: B1 VH with N59D
VL: B1 VL
notes: Fully human monoclonal antibody; also called No 4; Clone ID# 280-31-01
B8: 280-29-12 (antibody, human IgG1, kappa, V domains shown)
VH: B1 VH with A9T, A24V, G27D, D31S, L55I, V57I, R77S, N99H, A101L
VL: B1 VL with V32A, Y36S
notes: Fully human monoclonal antibody; also called No 3; Clone ID# 280-29-12
B9: 283-03-03 (antibody, human IgG1, kappa, V domains shown)
VH: B5 VH with G56D
VL: B1 VL with V32A, L46F, L47M
notes: Fully human monoclonal antibody; also called No 10; Clone ID# 283-03-03
B10: 280-31-01(mut) (antibody, human IgG1, kappa, V domains shown)
VH: B1 VH with N59D
VL: B1 VL with N92D
notes: Fully human monoclonal antibody; also called No 5
B11: 280-21-09 (antibody, human IgG1, kappa, V domains shown)
VH: B3 VH with A21S, V51I, G56N, E65Q, R74K, S77N, A82E
VL: B1 VL with V32A
notes: Fully human monoclonal antibody; also called No 2; Clone ID# 280-21-09
B12: 283-05-01 (antibody, human IgG1, kappa, V domains shown)
VH: B5 VH with G26E, G27D, L55I, M57I, A58V
VL: B1 VL with V32A, L46F, L47M
notes: Fully human monoclonal antibody; also called No 11; Clone ID# 283-05-01
B13: 283-11-03 (antibody, human IgG1, kappa, V domains shown)
VH: B5 VH with E3Q, V18M, G26E, G27D, L55I, M57I, A58V, Y77C, S84T
VL: B1 VL with V32A, L46F, L47M
notes: Fully human monoclonal antibody; also called No 13; Clone ID# 283-11-03
B14: 283-14-01 (antibody, human IgG1, kappa, V domains shown)
VH: B5 VH with E3Q, M57I
VL: B1 VL with V32A, L46F, L47M
notes: Fully human monoclonal antibody; also called No 14; Clone ID# 283-14-01

Biological target: T1, human CD33 on the AML-derived HL60 cell line (human, UniProt P20138 18-364)
T1 construct: whole, on cells; also called CD33 expressing HL60 cell line
T1 sequence (P20138 18-364): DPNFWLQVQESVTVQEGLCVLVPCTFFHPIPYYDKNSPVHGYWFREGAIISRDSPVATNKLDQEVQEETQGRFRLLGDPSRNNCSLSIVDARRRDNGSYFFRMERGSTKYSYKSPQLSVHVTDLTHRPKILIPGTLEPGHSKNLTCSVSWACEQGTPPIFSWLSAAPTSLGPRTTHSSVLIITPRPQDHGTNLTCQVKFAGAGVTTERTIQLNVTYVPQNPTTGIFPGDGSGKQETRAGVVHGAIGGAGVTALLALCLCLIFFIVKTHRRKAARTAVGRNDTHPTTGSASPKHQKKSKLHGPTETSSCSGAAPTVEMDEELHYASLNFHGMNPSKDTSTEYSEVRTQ
Test: FACS Scatchard analysis on HL60 cells
Description: (§1) Fourteen CD33 binding agents (fully human monoclonal antibodies as listed in table 1 as No. 1-14, respectively) to human and cynomolgus CD33 were determined by FACS Scatchard analysis as described in Brockhoff et al., (Cytometry. 1994 Sep. 1; 17(1):75-83) on CD33 expressing cells (AML-derived HL60 cell line, recombinant HEK293-cynomolgusCD33 cell line). Briefly, dilutions of a CD33 binding agent were prepared in a 96 well plate starting with 100-400 nM in the first well (80 pil), followed by 11 dilution steps (1:2, 40+40 μl). 50 μl of CD33 binding agent dilutions are added to FACS tubes, 150 μl cells (0.8×10⁶/ml=1.2×10⁵ cells/tube) are added to each FACS tube. Cells were gently mixed and incubated for 1 h on ice. Thereafter 50 μl FITC conjugated secondary antibody (concentration 15 μg/ml; mouse mAb anti-human IgG) was added, mixed, and incubated for 30 min. on ice. 4 ml PBS ph7.2 containing 0.02% […] were added thereafter, cells were pelleted and resuspended in 300 μl PBS pH 7.2 and subjected to FACS analysis using a BD FACS Canto. All experimental steps were performed on wet ice, all CD33 binding agent dilutions were made in PBS/0.5% BSA+0.02% acid. FACS calibration was performed using Quantum FITC MESF (Premix) Beads (Bangs Laboratories). All samples were measured using the same FACS parameters. […] A regression line was drawn through the resulting data points, the slope of this line corresponds to the negative value of the association constant.

Kd [nM] | Binder
0.3 | B1
0.3 | B2
0.3 | B3
0.4 | B4
0.3 | B5
0.3 | B6

Biological target: T2, cynomolgus CD33 on the recombinant HEK293-cynomolgusCD33 cell line (cynomolgus, UniProt A0A7N9ICR5 17-359)
T2 construct: whole, on cells
Test: FACS Scatchard analysis on HEK293-cynomolgusCD33 cells
Description: as §1

Kd [nM] | Binder
0.03 | B1
0.5 | B2
0.4 | B3
1.7 | B4
2.1 | B5
0.5 | B6
0.3 | B7
0.6 | B8
1.9 | B9
0.5 | B10
0.3 | B11
1.1 | B12
0.6 | B13
2.3 | B14
